Assay results published in patent US12329841B2, “Odorant-binding protein compositions, methods and uses thereof” (Universidade do Minho, priority 2020, dated 2025).

Experiments:
[1] = 1-AMA fluorescence binding assay in buffer; conditions: 50 mM Tris-HCl pH 7.5 buffer, 37° C., 1 μM protein, 1-AMA ligand, Ka from Kd=1/Ka, mean of 2 independent experiments
Method: (§1) In an embodiment, the pure odorant-binding protein was lyophilized and used in further procedures. To determine the affinity of the odorant-binding protein to odour molecules, 1-aminoanthracene (1-AMA) was used as an odour model molecule. Increased concentrations of fluorescent ligand model 1-aminoanthracene (1-AMA) were added to 1 μM of protein, and the formation of ligand/protein complex was quantified after 1 h at 37° C. by fluorescence emission at 481 nm (excitation at 295 nm).^30 Dissociation constant (Kd) was determined from a plot of fluorescence intensity versus concentration of ligand, obtained with a standard non-linear regression method, described in Malpeli et al. (1998).^31 The affinity behaviour of protein in presence of sweat solution was performed through a competitive fluorescence assay. Here, 1 μM of protein was mixed with 2 μM of 1-AMA and incubated at 37° C. for 1 h. After this period, increased volumes of sweat solution were added to the complex and incubated at same conditions.
(§2) In a further embodiment, fluorescence emission at 481 nm (excitation at 295 nm) was recorded and the dissociation constant (Kd) calculated. The association constant (Ka) was calculated by formula Kd=1/Ka.

[2] = Competitive fluorescence assay with sweat solution added to 1-AMA/protein complex; format: binding; conditions: 37° C.; for Ka in sweat (affinity/association constant): sweat solution (AATCC 15-2009, pH 4.0-8.5), 1 μM protein + 2 μM 1-AMA, mean of 2 independent experiments
Method: as §1
In an embodiment, the sweat solution was prepared as indicated in AATCC method 15-2009 “Colorfastness to Perspiration”. The pH of the prepared solution varied between 4.0 and 8.5. In accordance with its composition, the sweat solution is also regarded as electrolyte solution.
as §2

[3] = Fragrance release quantified by headspace GC-MS after adding sweat solution; conditions: for Odorific molecules released in response to human perspiration, compared with other fusion proteins based on porcine OBP: sweat pH 4.0-8.5
Method: In an embodiment, the release of fragrance was quantified by gas chromatography-mass spectrometry (GC-MS). Increased concentrations of fragrance were used in different vials and the fragrance in headspace quantified performing the calibration curve (area of peak vs fragrance concentration). The fragrance was incubated with the odorant-binding protein at 37° C. Sweat solution was added and the fragrance release determined after several periods of time (0.5-24 h) of perspiration exposition.

[4] = particularly in the presence of a ligand; cited from earlier work
[5] = cited from earlier work
[6] = listed as Native porcine OBP (OBP-I)

B1: OBP::GQ20::KP: Recombinant pig OBP fused with linker GQ 20× and KP peptide, SEQ ID NO. 21 (protein)
chain: QEPQPEQDPFELSGKWITSYIGSSDLEKIGENAPFQVFMRSIEFDDKESKVYLNFFSKENGICEEFSLIGTKQEGNTYDVNYAGNNKFVVSYASETALIISNINVDEEGDKTIMTGLLGKGTDIEDQDLEKFKEVTRENGIPEENIVNIIERDDCPAGQGQGQGQGQGQGQGQGQGQGQGQGQGQGQGQGQGQGQGQGGVCGPSPPCITT
modifications: OBP::GQ20::KP (recombinant protein)
- Ka in buffer (affinity/association constant) [1]: 4 µM⁻¹
- Reduction of affinity on addition of sweat solution (Ka buffer vs Ka sweat) [2]: 6.8 ×
- Ka in sweat (affinity/association constant) [2]: 0.59 µM⁻¹
- Odorific molecules released in response to human perspiration, compared with other fusion proteins based on porcine OBP [3]: > 6.8 ×
- More fragrance release in presence of sweat versus presence of buffer ([3]; sweat versus buffer): 6.8 ×

B2: OBP-I: Native porcine (pig) odorant-binding protein, PDB ID 1DZK, SEQ ID NO. 1 (protein, listed as Sus scrofa)
chain: QEPQPEQDPFELSGKWITSYIGSSDLEKIGENAPFQVFMRSIEFDDKESKVYLNFFSKENGICEEFSLIGTKQEGNTYDVNYAGNNKFVVSYASETALIISNINVDEEGDKTIMTGLLGKGTDIEDQDLEKFKEVTRENGIPEENIVNIIERDDCPA
modifications: Pig OBP (PDB ID 1DZK)
- Ka in buffer (affinity/association constant) [1]: 4 ± 0.03 µM⁻¹
- Ka in buffer (affinity/association constant) ([1]; listed as Native OBP-I): 4 ± 0.03 µM⁻¹
- Ka in buffer (affinity/association constant) [1, 6]: 4 ± 0.03 µM⁻¹
- Reduction of affinity on addition of sweat solution (Ka buffer vs Ka sweat) [2]: 20 ×
- Ka in sweat (affinity/association constant) [2]: 0.2 µM⁻¹
- Ka in sweat (affinity/association constant) ([2]; listed as Native OBP-I): 0.2 ± 0.02 µM⁻¹
- Ka in sweat (affinity/association constant) [2, 6]: 0.2 ± 0.02 µM⁻¹
- Odorific molecules released in response to human perspiration, compared with other fusion proteins based on porcine OBP [3]: more than 20 ×
- Structure stable to thermal denaturation up to (FT-IR) [4]: up to 80 °C

B3: OBP::GQ20::CBM: Recombinant pig OBP fused with spacer GQ20 and carbohydrate-binding module; comparative data, SEQ ID NO. 22 (protein)
chain: QEPQPEQDPFELSGKWITSYIGSSDLEKIGENAPFQVFMRSIEFDDKESKVYLNFFSKENGICEEFSLIGTKQEGNTYDVNYAGNNKFVVSYASETALIISNINVDEEGDKTIMTGLLGKGTDIEDQDLEKFKEVTRENGIPEENIVNIIERDDCPAGQGQGQGQGQGQGQGQGQGQGQGQGQGQGQGQGQGQGQGQASPIGEGTFDDGPEGWVAYGTDGPLDTSTGALCVAVPAGSAQYGVGVVLNGVAIEEGTTYTLRYTATASTDVTVRALVGQNGAPYGTVLDTSPALTSEPRQVTETFTASATYPATPAADDPEGQIAFQLGGFSADAWTLCLDDVALDSEVEL
modifications: OBP::GQ20::CBM (recombinant protein)
- Ka in buffer (affinity/association constant) [1]: 4.17 µM⁻¹
- Reduction of affinity on addition of sweat solution (Ka buffer vs Ka sweat) [2]: 1.3 ×
- Ka in sweat (affinity/association constant) [2]: 3.16 µM⁻¹
- Release of fragrance in presence of sweat, value reported in state of art (ref. 25) [5]: 1.3 ×
